Experimental data: the supplement of paper PMC11811203

B1: THAP1; numbered along this chain (parent)
chain: MVQSCSAYGCKNRYDKDKPVSFHKFPLTRPSLCKEWEAAVRRKNFKPTKYSSICSEHFTPDCFKRECNNKLLKENAVPTIFLCTEPHDKKEDLLEPQEQLPPPPLPPPVSQVDAAIGLLMPPLQTPVNLSVFCDHNYTVEDTMHQRKRIHQLEQQVEKLRKKLKTAQQRCRRQERQLEKLKEVVHFQKEKDDVSERGYVILPNDYFEIVEVPA

Variants of: B1
Experiment: THAP1 transcriptional activity (GFP+/GFP- enrichment relative to wild-type constructs) (ratio to WT); higher = more THAP1 activity (PSMB5 reporter activation)
Conditions: with PSMB5 promoter-GFP reporter
Summary of the method: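 A site-saturation library of human THAP1 (residues 2–213, each changed to all 20 amino acids) was transduced by lentivirus at MOI ~0.3, in duplicate, into THAP1-knockout HEK-293T cells carrying mClover3 knocked in at endogenous PSMB5. After five days, BFP+ cells were sorted into GFP-dim and GFP-bright bins, and variants were counted by Illumina sequencing of genomic DNA amplicons. Activity is the replicate-mean bright/dim read fold change divided by the mean of wild-type synonymous constructs.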
For V77C, the THAP1 transcriptional activity was 0.434. With V77E the THAP1 transcriptional activity was 0.259. V77L showed a THAP1 transcriptional activity of 0.547. V77G gave a THAP1 transcriptional activity of 0.281. Variant V77M has a THAP1 transcriptional activity of 0.439. For V77A, the THAP1 transcriptional activity was 0.343. Variant V77W has a THAP1 transcriptional activity of 0.267. For V77R, the THAP1 transcriptional activity was 0.539. For V77N, the THAP1 transcriptional activity was 0.195. For V77F, the THAP1 transcriptional activity was 0.325. With V77S the THAP1 transcriptional activity was 0.41. With V77D the THAP1 transcriptional activity was 0.295. V77H showed a THAP1 transcriptional activity of 0.287. For V77Q, the THAP1 transcriptional activity was 0.318. V77Y gave a THAP1 transcriptional activity of 0.279. K73S was tested, and the THAP1 transcriptional activity was 0.154. Variant K73Y has a THAP1 transcriptional activity of 0.291. K73G showed a THAP1 transcriptional activity of 0.194. K73W showed a THAP1 transcriptional activity of 0.212. K73E showed a THAP1 transcriptional activity of 0.261. K73F was tested, and the THAP1 transcriptional activity was 0.19. K73P was tested, and the THAP1 transcriptional activity was 0.102. Variant K73I has a THAP1 transcriptional activity of 0.142. K73H gave a THAP1 transcriptional activity of 0.598. Variant K73R has a THAP1 transcriptional activity of 0.622. K73C gave a THAP1 transcriptional activity of 0.395. Work on K73Q yielded a THAP1 transcriptional activity of 0.273. Work on K73D yielded a THAP1 transcriptional activity of 0.191. Work on K73L yielded a THAP1 transcriptional activity of 0.33. K73V showed a THAP1 transcriptional activity of 0.644. In the case of K73T, the THAP1 transcriptional activity is reported as 0.514. With K73A the THAP1 transcriptional activity was 0.31. With K73N the THAP1 transcriptional activity was 0.522. With K73M the THAP1 transcriptional activity was 0.543. Work on E74Y yielded a THAP1 transcriptional activity of 0.453. Variant E74V has a THAP1 transcriptional activity of 0.618. Work on E74G yielded a THAP1 transcriptional activity of 0.501. Variant E74W has a THAP1 transcriptional activity of 0.598. E74L gave a THAP1 transcriptional activity of 0.384. E74H showed a THAP1 transcriptional activity of 0.512. With E74D the THAP1 transcriptional activity was 0.59. For E74C, the THAP1 transcriptional activity was 0.522. Variant E74T has a THAP1 transcriptional activity of 0.334. E74Q was tested, and the THAP1 transcriptional activity was 1.17. Work on E74I yielded a THAP1 transcriptional activity of 0.327. Variant E74P has a THAP1 transcriptional activity of 0.952. For E74S, the THAP1 transcriptional activity was 0.604. With E74A the THAP1 transcriptional activity was 0.445. E74F showed a THAP1 transcriptional activity of 1.09. Work on E74R yielded a THAP1 transcriptional activity of 0.858. E74M gave a THAP1 transcriptional activity of 0.293. Variant E74N has a THAP1 transcriptional activity of 0.686. With A76G the THAP1 transcriptional activity was 0.221. For A76Y, the THAP1 transcriptional activity was 0.191. With A76L the THAP1 transcriptional activity was 0.476. Variant A76P has a THAP1 transcriptional activity of 0.384. A76C was tested, and the THAP1 transcriptional activity was 0.862. With A76T the THAP1 transcriptional activity was 0.18. With A76V the THAP1 transcriptional activity was 0.435. A76K showed a THAP1 transcriptional activity of 0.428. For A76M, the THAP1 transcriptional activity was 0.215. A76D showed a THAP1 transcriptional activity of 0.209. A76W gave a THAP1 transcriptional activity of 0.386. A76N was tested, and the THAP1 transcriptional activity was 0.121. A76Q was tested, and the THAP1 transcriptional activity was 0.234. A76F gave a THAP1 transcriptional activity of 0.307. A76E gave a THAP1 transcriptional activity of 0.444. A76I showed a THAP1 transcriptional activity of 0.165. In the case of I80G, the THAP1 transcriptional activity is reported as 0.55. I80A gave a THAP1 transcriptional activity of 0.266. Variant I80D has a THAP1 transcriptional activity of 0.29. I80C gave a THAP1 transcriptional activity of 0.239. Variant I80M has a THAP1 transcriptional activity of 0.484. I80P was tested, and the THAP1 transcriptional activity was 0.235. I80F gave a THAP1 transcriptional activity of 0.463. Variant I80L has a THAP1 transcriptional activity of 0.606. I80E showed a THAP1 transcriptional activity of 0.459. With I80N the THAP1 transcriptional activity was 0.429. I80H showed a THAP1 transcriptional activity of 0.323. In the case of T79L, the THAP1 transcriptional activity is reported as 0.628. In the case of T79G, the THAP1 transcriptional activity is reported as 0.301. T79E was tested, and the THAP1 transcriptional activity was 0.254. Work on T79V yielded a THAP1 transcriptional activity of 0.326. For T79P, the THAP1 transcriptional activity was 0.18. For T79H, the THAP1 transcriptional activity was 0.293. For T79S, the THAP1 transcriptional activity was 0.71. For T79N, the THAP1 transcriptional activity was 0.622. T79D showed a THAP1 transcriptional activity of 0.228. In the case of T79M, the THAP1 transcriptional activity is reported as 0.254. Variant T79C has a THAP1 transcriptional activity of 0.183. Variant T79Q has a THAP1 transcriptional activity of 0.296. T79I gave a THAP1 transcriptional activity of 0.861. For T79Y, the THAP1 transcriptional activity was 0.151. T79W showed a THAP1 transcriptional activity of 0.281. For T79A, the THAP1 transcriptional activity was 0.438. Work on T79K yielded a THAP1 transcriptional activity of 0.278. L71P showed a THAP1 transcriptional activity of 0.113. Variant L71T has a THAP1 transcriptional activity of 0.52. With L71S the THAP1 transcriptional activity was 0.483. With L71A the THAP1 transcriptional activity was 0.407. Variant L71G has a THAP1 transcriptional activity of 0.187. Variant L71N has a THAP1 transcriptional activity of 0.266. For L71I, the THAP1 transcriptional activity was 1.07. Variant L71H has a THAP1 transcriptional activity of 0.403. Variant L71W has a THAP1 transcriptional activity of 0.259. With L71C the THAP1 transcriptional activity was 1.42. For L71K, the THAP1 transcriptional activity was 0.533. L71E gave a THAP1 transcriptional activity of 0.221. L71R showed a THAP1 transcriptional activity of 0.39. Variant L71Y has a THAP1 transcriptional activity of 0.309. L71Q showed a THAP1 transcriptional activity of 0.432. With L71D the THAP1 transcriptional activity was 0.74. Variant L71V has a THAP1 transcriptional activity of 1.47. For L71M, the THAP1 transcriptional activity was 0.941. L71F was tested, and the THAP1 transcriptional activity was 0.361. N75I gave a THAP1 transcriptional activity of 0.302. In the case of N75G, the THAP1 transcriptional activity is reported as 1.42. Work on N75H yielded a THAP1 transcriptional activity of 0.567. Variant N75M has a THAP1 transcriptional activity of 0.658. For N75L, the THAP1 transcriptional activity was 0.286. N75E showed a THAP1 transcriptional activity of 0.468. N75R showed a THAP1 transcriptional activity of 0.829. Variant N75V has a THAP1 transcriptional activity of 0.214. Variant N75C has a THAP1 transcriptional activity of 0.38. Variant N75T has a THAP1 transcriptional activity of 0.612. N75P showed a THAP1 transcriptional activity of 0.241. Work on N75Y yielded a THAP1 transcriptional activity of 0.177. Variant N75D has a THAP1 transcriptional activity of 0.507. Variant N75Q has a THAP1 transcriptional activity of 0.684. N75W was tested, and the THAP1 transcriptional activity was 0.844. For N75F, the THAP1 transcriptional activity was 0.875. In the case of N75A, the THAP1 transcriptional activity is reported as 0.373. N75K was tested, and the THAP1 transcriptional activity was 0.45. In the case of P78D, the THAP1 transcriptional activity is reported as 0.183. Variant P78T has a THAP1 transcriptional activity of 0.283. P78E was tested, and the THAP1 transcriptional activity was 0.463. Work on P78R yielded a THAP1 transcriptional activity of 0.156. Work on P78C yielded a THAP1 transcriptional activity of 0.419. For P78Y, the THAP1 transcriptional activity was 0.488. P78V gave a THAP1 transcriptional activity of 0.191. P78N gave a THAP1 transcriptional activity of 0.269. For P78A, the THAP1 transcriptional activity was 0.526. P78G gave a THAP1 transcriptional activity of 0.102. P78F showed a THAP1 transcriptional activity of 0.267. In the case of P78M, the THAP1 transcriptional activity is reported as 0.495. In the case of P78L, the THAP1 transcriptional activity is reported as 0.161. For P78Q, the THAP1 transcriptional activity was 0.241. With P78I the THAP1 transcriptional activity was 0.211. L72K was tested, and the THAP1 transcriptional activity was 0.0937. In the case of L72Y, the THAP1 transcriptional activity is reported as 0.172. For L72N, the THAP1 transcriptional activity was 0.129. Variant L72C has a THAP1 transcriptional activity of 0.148. In the case of L72W, the THAP1 transcriptional activity is reported as 0.18. L72Q gave a THAP1 transcriptional activity of 0.163. Work on L72D yielded a THAP1 transcriptional activity of 0.169. L72P showed a THAP1 transcriptional activity of 0.221. L72V showed a THAP1 transcriptional activity of 0.172. L72G showed a THAP1 transcriptional activity of 0.189. With L72F the THAP1 transcriptional activity was 0.177. L72M gave a THAP1 transcriptional activity of 0.106. Work on L72E yielded a THAP1 transcriptional activity of 0.322. L72T was tested, and the THAP1 transcriptional activity was 0.0921. Variant L72A has a THAP1 transcriptional activity of 0.17. L72I showed a THAP1 transcriptional activity of 0.173. Variant L72R has a THAP1 transcriptional activity of 0.0764. Work on L72S yielded a THAP1 transcriptional activity of 0.092. Work on L72H yielded a THAP1 transcriptional activity of 0.134.
